{"source": "patent US5792742A", "about": "“Fibrin-binding peptide fragments of fibronectin” (New York University, priority 1994, dated 1998)", "key": {"fibrin [1]": {"system": "fibrin", "assay": "ELISA: competitive inhibition of fibronectin binding to fibrin by type 1 recombinant modules", "conditions": "up to 5,000-50,000 molar excess compared to Fn", "description": "Fibrin-binding activity was also assessed by an ELISA. Fn was reacted with fibrin-coated microtiter plates and bound Fn was determined by incubation with a polyclonal rabbit anti-Fn antiserum followed by alkaline phosphatase-labeled anti-rabbit Ig. […] Thus, on a mole-per-mole basis, assuming complete attachment of all the fibrinogen applied to the polystyrene plate, total proteolytic conversion to fibrin, and accessibility of the binding sites, 0.8 moles of Fn per mole of fibrin were required to achieve maximum binding (assuming a molecular weight of 340 kDa for the fibrin hexamer and 440 kDa for the Fn dimer).\nThe recombinant Fn modules were used to inhibit the binding of Fn to the fibrin-coated microtiter plates. […] At this saturating concentration, the binding of Fn to fibrin was inhibited by 70%."}, "fibrin [2]": {"system": "fibrin", "conditions": "Husain et al. 1981; cited from earlier work"}, "fibrin [3]": {"system": "fibrin", "assay": "Fibrin-SEPHAROSE affinity chromatography (binding and elution)", "set-up": "species or system bovine", "description": "Bovine fibrinogen was cross-linked to CNBr-activated SEPHAROSE™ (5 mg/ml beads) according to the manufacturer's instructions. Coupled fibrinogen was subsequently converted to fibrin by incubation with human thrombin to a final concentration of 5 NIH units/ml and 100 K.I. (kallikrein inhibitory) units/ml of aprotinin (in 0.05M Tris-HCI buffer, pH 7.6, containing 0.1M NaCl and 0.01M EDTA) for three hours, at room temperature (Gold, et al. (1983) Biochemistry 22, 4113-4119).\n1.0M NaCl in 0.05M tris buffer, pH 8.0.\nThe fibrin-binding activity of the proteolytically derived 25.9 kDa fragment of Fn was determined by its ability to bind to a fibrin affinity matrix. […] FBB was used to equilibrate and wash the column. Following warming of the column to 22° C., the column was washed with FBB until absorbance at 280 nm (A280) was less than 0.01, and bound protein eluted with 0.05M Tris-HCl, 0.5M NaCl, 6M urea buffer, pH 7.6.\nThe module (500 μg/1.0 ml) was incubated for 4 hours (while rotating) at 4° C. in the presence of 1.0 ml fibrin-SEPHAROSE™ (5 mg fibrin/ml SEPHAROSE™ beads) equilibrated in […] Tris-HCl, 0.1M NaCl buffer, pH 7.6.\nThe 11 KDa peptide (50 μg/0.206 ml) was radiolabeled using the IODO-BEAD method (Pierce Chemical). The peptide was added to one IODO-BEAD in the presence of 100 μCi ^125 I (17.4 Ci/mg, New England Nuclear) and incubated on ice for 10 minutes. […]"}, "fibrin [4]": {"system": "fibrin", "conditions": "0-10 μM competitor, biotinylated Fn 2.3 nM", "experimental": "Since the anti-Fn detection system described for the ELISA above could not be used in Fn competition assays employing the intact Fn molecule or the 25.8 kDa proteolytic fragment, purified Fn was biotinylated using water soluble NHS-LC-Biotin (Pierce Chemm. Co.; according to the manufacturer's instructions) and binding to fibrin detected by alkaline phosphatase conjugated streptavidin (diluted 1/500 in FBBT/BSA) for 1 hour at 22° C., followed by the addition of p-nitrophenyl phosphate, as described above. To ensure that the biotinylation of the Fn had not affected its ability to bind to fibrin, fibrin-binding activity was tested by incubating increasing concentrations of biotinylated Fn (10-300 ng/0.1 ml FBB) with the fibrin-coated wells (200 ng) and detected (see FIG. 28A) using alkaline phosphatase-conjugated streptavidin and the reaction developed as described for Direct Elisa.\nTo compare the relative fibrin-binding affinities of the ^4 F1.^5 F1 recombinant module pair and the 25.9 kDa proteolytic fragment (^1 F1-^5 F1) with that of the native Fn molecule, these purified proteins were competed with biotinylated plasma Fn for binding to fibrin coated wells and the extent of inhibition of binding assessed by incubation with alkaline phosphatase-conjugated streptavidin. […] Biotinylated Fn (100 ng/0.1 ml FBB: 2.3 nM) was combined with increasing concentrations (0-10 μM) of either unlabeled Fn, the 25.9 kDa proteolytic fragment, or the separate ^4 F1.^5 F1, and ^10 F1 recombinant modules and incubated with the fibrin-coated microtiter wells for 1 hour at 22° C. […] Bound biotinylated Fn was quantitated as described above."}}, "note": "[ ]: non-standard residue; d: D form. pGlu = O=C1CC[C@@H](C(=O)O)N1", "data": [{"molecule": "^1 F1: recombinant first type 1 module of fibronectin, amino acids 1-61 (protein, not fully specified; also: major species lacks N-terminal Gln-Ala, its new N-terminal Gln3 is pyroglutamate) [pGlu]AQQMVQPQSPVAVSQSKPGCYDNGKHYQINQQWERTYLGNALVCTCYGGSRGFNCESKPE", "values": [{"measurement": "inhibition of the binding of Fn to fibrin (non-binding modules)", "setting": "fibrin [1]", "value": "< 20", "unit": "%"}]}, {"molecule": "tPA preparation of Husain et al.: high-affinity plasminogen activator preparation of Husain et al. (1981) (protein, UniProt P00750 36-562, looked up) Tissue-type plasminogen …: SYQVICRDEKTQMIYQQHQSWLRPVLRSNRVEYCWCNSGRAQCHSVPVKSCSEPRCFNGGTCQQALYFSDFVCQCPEGFAGKCCEIDTRATCYEDQGISYRGTWSTAESGAECTNWNSSALAQKPYSGRRPDAIRLGLGNHNYCRNPDRDSKPWCYVFKAGKYSSEFCSTPACSEGNSDCYFGNGSAYRGTHSLTESGASCLPWNSMILIGKVYTAQNPSAQALGLGKHNYCRNPDGDAKPWCHVLKNRRLTWEYCDVPSCSTCGLRQYSQPQFRIKGGLFADIASHPWQAAIFAKHRRSPGERFLCGGILISSCWILSAAHCFQERFPPHHLTVILGRTYRVVPGEEEQKFEVEKYIVHKEFDDDTYDNDIALLQLKSDSSRCAQESSVVRTVCLPPADLQLPDWTECELSGYGKHEALSPFYSERLKEAHVRLYPSSRCTSQHLLNRTVTDNMLCAGDTRSGGPQANLHDACQGDSGGPLVCLNDGRMTLVGIISWGLGCGQKDVPGVYTKVTNYLDWIRDNMRP", "values": [{"measurement": "arginine concentration eluting from solid phase fibrin", "setting": "fibrin [2]", "value": 0.2, "unit": "mM"}]}, {"molecule": "^1 F1.^2 F1: recombinant fibronectin module pair, first and second type 1 modules, amino acids 1-106; negative control (protein, N-terminal pyroglutamate; the major species lacks the NH2-terminal Gln-Ala dipeptide and its new N-terminal Gln is also pyroglutamate, recombinant fibronectin module pair, first and second type 1 modules, amino acids 1-106; negative control) QAQQMVQPQSPVAVSQSKPGCYDNGKHYQINQQWERTYLGNALVCTCYGGSRGFNCESKPEAEETCFDKYTGNTYRVGDTYERPKDSMIWDCTCIGAGRGRISCTI", "values": [{"measurement": "inhibition of the binding of Fn to fibrin (non-binding modules)", "setting": "fibrin [1]", "value": "< 20", "unit": "%"}, {"measurement": "% of protein that did not bind to fibrin-Sepharose (unbound fraction)", "setting": "fibrin [3]", "value": "~100", "unit": "%"}, {"measurement": "binding to fibrin-Sepharose", "setting": "fibrin [3]", "value": "none was present"}, {"measurement": "inhibition of biotinylated Fn binding (non-fibrin-binding modules)", "setting": "fibrin [4]", "value": 15, "unit": "%"}]}]}
